The values below come from publication PMC8017708.

The term stoichiometry N denotes the number of molecules, sites or subunits per partner or assembly.

Where a chain is given by its changes, count along the chain named. In names and notes the source's numbering stands.

Details in all cases: remark: other sources report otherwise
Assay [1] deals with T1, recombinant UVR8 (wild-type) purified from Sf9 insect cells (Arabidopsis thaliana), Q9FN03.
T1 chain: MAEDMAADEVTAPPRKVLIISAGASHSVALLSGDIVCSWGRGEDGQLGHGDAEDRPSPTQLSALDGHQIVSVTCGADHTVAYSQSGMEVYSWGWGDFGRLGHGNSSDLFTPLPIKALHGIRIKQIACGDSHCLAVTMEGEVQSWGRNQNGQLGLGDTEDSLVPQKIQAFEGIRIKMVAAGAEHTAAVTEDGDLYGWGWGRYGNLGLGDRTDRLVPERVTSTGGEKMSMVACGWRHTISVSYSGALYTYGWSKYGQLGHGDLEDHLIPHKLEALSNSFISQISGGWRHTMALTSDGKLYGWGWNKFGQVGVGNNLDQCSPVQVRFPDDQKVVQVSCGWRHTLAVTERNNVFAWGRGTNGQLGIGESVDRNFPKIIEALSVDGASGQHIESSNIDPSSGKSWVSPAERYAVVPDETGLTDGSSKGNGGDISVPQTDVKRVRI
In words: SEC. A general note: In gel filtration, larger molecules generally elute earlier.

The target of assay [2] is T2, UVR8^W285A expressed in Arabidopsis (Arabidopsis thaliana), Q9FN03.
T2 chain: T1 chain with W285A
In words: cross-linking.

Assay [3] addresses T3, recombinant UVR8^W285A purified from Sf9 insect cells (Arabidopsis thaliana), Q9FN03.
T3 chain: T1 chain with W285A
The experiment in a line: SEC.

B1: recombinant UVR8 (wild-type) purified from Sf9 insect cells, Q9FN03 1-440 (natural protein)
chain: T1 chain
In the case of B1, the stoichiometry N in assay [1] was determined as 2.

B2: UVR8^W285A expressed in Arabidopsis, Q9FN03 1-440 (natural protein)
chain: T1 chain with W285A
In assay [2], B2 returned a stoichiometry N of 2.

B3: recombinant UVR8^W285A purified from Sf9 insect cells, Q9FN03 1-440 (natural protein)
chain: T1 chain with W285A
In the case of B3, in assay [3], the stoichiometry N is 2.
